Data: patent US7217686B1, “DNA sequence encoding oncofetal ferritin protein” (Gardino Investment N.V., priority 1999, dated 2007)
Several values for one entry are separate records, joined by “and”; a condition that tells them apart may be missing. Identical values can stand only once.

Assays:
[1] = system: splenocytes from Balb/c mice transplanted with C57Bl bone marrow; test: In-vitro OFF1 treatment of splenocytes from transplanted Balb/c mice in MLR; type: cell-based
Source text: (§1) Immunologic assay: Splenocytes from bone marrow transplanted (BMT) Balb/c mice were reacted as above in MLR against the donor C57Bl splenocytes or against non-related splenocytes, to measure their immunoresponsiveness to the corresponding alloantigens.
In further experiments we tested the in-vitro effect of OFF1 treatment on responsiveness of splenocytes from control BMT+PBS against both donor C57Bl stimulators and against ICR stimulators.

[2] = system: human bone marrow progenitor CFU-GM; test: CFU-GM colony assay with normal human bone marrow mononuclear cells; type: cell-based; conditions: for number of CFU-GM colonies: scored after 14 days
Description: Bone marrow samples from 11 healthy volunteer donors were processed by density gradient separation using […] (Sigma diagnostics, St. Louis, Mo., USA) to obtain a purified population of mononuclear cells. Colony assays were performed in a plating medium containing final concentrations of 0.92% methyl cellulose (M-281 powder, 4,000 centipoise, Fisher Scientific Co., Fair Lawn, N.J., USA), rehydrated in Iscove's modified Dulbecco's medium containing 36 mM sodium bicarbonate (Gibco, Grand Island, N.Y., USA), 30% fetal bovine serum (FBS) (HyClone, Logan, Utah, USA) 0.292 mg/ml glutamine, 100 U/ml penicillin and 0.01 mg/ml streptomycin (Biological Industries, Beit Haemek, Israel). Growth factors used were […] GM-CSF Leucomax (Sandoz Pharma) and 5% vol/vol human phytohemagglutinin-M (Difco Laboratories, Detroit, Mich., USA)-induced conditioned medium (Cond. Med.) p43 (PLF) was added at concentration of 1 μg/mL and in neutralization experiments, p43 (PLF) was preincubated with 10× excess of CM-H-9 MoAb at 37° C. for 30 min and the complex added to the assay as above. The colony assay medium contained 10^5 mononuclear cells/ml and each 1 ml was plated into triplicate wells (333 μl/well) of a 24 well tissue culture plate (Greiner, Germany). Water was added to spaces between cells to maximize humidity during incubation of the cultures. The cultures were incubated at 37° C. in 5% CO2 and 55% relative humidity. Plates were scored after 14 days for colonies containing more than 50 cells.

[3] = system: splenocytes from Balb/c mice transplanted with C57Bl bone marrow; test: MLR of splenocytes from bone marrow transplanted Balb/c mice against alloantigens; type: cell-based
Source text: as §1
Splenocytes obtained from Balb/c mice (K^b) treated with BMT+PBS (control) and with BMT+OFF1 were used as responder cells (R) and were reacted with C57Bl (K^b) splenocytes as stimulator cells (S) in MLR.

[4] = system: C57Bl Donor lymphocytes in transplanted Balb/c mice; test: Bone marrow transplantation C57Bl into Balb/c, flow cytometry for donor K^b positive cells; type: in vivo; conditions: Balb/c BMT treated with OFF1 (ex vivo 1 μg/ml, 10 μg i.p. for 14 days); 6 weeks post transplantation; results not shown
Source text: Animals: C57BL/6 (H2^b) and BALB/c (H2^d) mice were purchased from Harlane. Donors and recipients were 8–10 wk of age at the time of BMT. All mice were housed in a specific pathogen-free facility in microisolator cages.
Ex-vivo induction of anergy in mixed lymphocyte reaction (MLR): C57Bl donor bone marrow (responder) was harvested 2 days before transplantation. Balb/c recipient (stimulator) spleen cells were irradiated at a midplane dose of 3300 cGy. The cells were resuspended in RPMI-1640 medium with 5% mouse serum to 4×10^6/ml and incubated with 1 μg/ml of OFF1 for 30 min.
The erythrocyte depleted mononuclear cell fraction of the marrow was resuspended at a concentration of 4×10^6/ml in the above medium in a Donor:Recipient ratio of 1:1. The cells were cultured in tissue culture flasks for 36 hours at 37° C. in 5% CO2, washed and resuspended to 2×10^7 cells/1 ml in PBS containing OFF1 (1 μg/ml).
Bone marrow Transplantation (BMT): Balb/c recipients were sublethely irradiated by exposing mice to 5;5 GRAY total body irradiation from a ^137Cesium source at a dose rate of 85 cGY/min.
Day 2 MLR cultured cells (10^7/0.5 ml) were injected intravenously to BALB/c mice pretreated with OFF1 ((10 μg) injected i.p.) (BMT+OFF1). […]
All results were obtained using FACS (Beckton Dickenson). […] 10,000 cells were analyzed for each determination.

[5] = 11 donors, Cond. Med. 5% vol/vol, p43 (PLF) 1 μg/ml, GM-CSF 15 ng/ml

B1: OFF1: oncofetal ferritin 1 protein, purified from term placenta, termed also p43 (placental isoferritin, PLF) (protein)
chain: MTTASTSQVRQNYHQDSEAAINRQINLELYASYVYLSMSYYFDRDDVALKNFAKYFLHQSHEEREHAEKLMKLQNQRGGRIFLQDIKKPDCDDWESGLNAMECALHLEKNVNQSLLEFPSPISPSPSCWHHYTTNRPQPQHHLLRPRRRKRPHSIPTPILIFRSP
modifications: left off: a dimerising Fc or GST
P.I. (Proliferation Index), BMT + OFF1, in-vitro treatment OFF1 ([1]; Stimulator C57Bl): 1.3
P.I. (Proliferation Index), BMT + PBS, in-vitro treatment OFF1 ([1]; Stimulator C57Bl): 1
P.I. (Proliferation Index), BMT + OFF1, in-vitro treatment OFF1 ([1]; Stimulator ICR): 4.7
P.I. (Proliferation Index), BMT + PBS, in-vitro treatment OFF1 ([1]; Stimulator ICR): 3.5
MEDIAN number of CFU-GM colonies [2, 5]: 94
RANGE of number of CFU-GM colonies [2, 5]: 0–748
mean number of CFU-GM colonies (AVG.) [2, 5]: 169+/−216 and 169
number of CFU-GM colonies ([2]; Bone Marrow No. 1, Cond. Med. 5% vol/vol, p43 (PLF) 1 μg/ml, GM-CSF 15 ng/ml): 280
number of CFU-GM colonies ([2]; Bone Marrow No. 2, Cond. Med. 5% vol/vol, p43 (PLF) 1 μg/ml, GM-CSF 15 ng/ml): 748
number of CFU-GM colonies ([2]; Bone Marrow No. 3, Cond. Med. 5% vol/vol, p43 (PLF) 1 μg/ml, GM-CSF 15 ng/ml): 152
number of CFU-GM colonies ([2]; Bone Marrow No. 4, Cond. Med. 5% vol/vol, p43 (PLF) 1 μg/ml, GM-CSF 15 ng/ml): 28
number of CFU-GM colonies ([2]; Bone Marrow No. 5, Cond. Med. 5% vol/vol, p43 (PLF) 1 μg/ml, GM-CSF 15 ng/ml): 94
number of CFU-GM colonies ([2]; Bone Marrow No. 6, Cond. Med. 5% vol/vol, p43 (PLF) 1 μg/ml, GM-CSF 15 ng/ml): 6
number of CFU-GM colonies ([2]; Bone Marrow No. 7, Cond. Med. 5% vol/vol, p43 (PLF) 1 μg/ml, GM-CSF 15 ng/ml): 0
number of CFU-GM colonies ([2]; Bone Marrow No. 8, Cond. Med. 5% vol/vol, p43 (PLF) 1 μg/ml, GM-CSF 15 ng/ml): 242
number of CFU-GM colonies ([2]; Bone Marrow No. 9, Cond. Med. 5% vol/vol, p43 (PLF) 1 μg/ml, GM-CSF 15 ng/ml): 8
number of CFU-GM colonies ([2]; Bone Marrow No. 10, Cond. Med. 5% vol/vol, p43 (PLF) 1 μg/ml, GM-CSF 15 ng/ml): 210
number of CFU-GM colonies ([2]; Bone Marrow No. 11, Cond. Med. 5% vol/vol, p43 (PLF) 1 μg/ml, GM-CSF 15 ng/ml): 94
concentration giving the highest number of CFU-GM colonies ([2]; dose response, bone marrow progenitor cells from three donors (FIG. 10)): 1 μg/1 mL
Mean CFU-GM following preincubation with MoAb CM-H9 ([2]; p43 (PLF) 1 μg/mL preincubated with 10× excess of CM-H-9 MoAb at 37° C. for 30 min): 7+/−10
P.I. (Proliferation Index), BMT + OFF1, in-vitro treatment None ([3]; Stimulator C57Bl): 1.3
P.I. (Proliferation Index), BMT + OFF1 ([3]; Stimulator C57Bl, S/R Ratio 0): 1
P.I. (Proliferation Index), BMT + OFF1 ([3]; Stimulator C57Bl, S/R Ratio 0.2): 1.3
P.I. (Proliferation Index), BMT + OFF1 ([3]; Stimulator C57Bl, S/R Ratio 1): 1
P.I. (Proliferation Index), BMT + OFF1 ([3]; Stimulator C57Bl, S/R Ratio 4): 1.1
P.I. (Proliferation Index), BMT + OFF1, in-vitro treatment None ([3]; Stimulator ICR): 9.6
P.I. (Proliferation Index), BMT + OFF1 ([3]; Stimulator ICR, S/R Ratio 0): 1
P.I. (Proliferation Index), BMT + OFF1 ([3]; Stimulator ICR, S/R Ratio 0.2): 1.8
P.I. (Proliferation Index), BMT + OFF1 ([3]; Stimulator ICR, S/R Ratio 1): 2.6
P.I. (Proliferation Index), BMT + OFF1 ([3]; Stimulator ICR, S/R Ratio 4): 9.6
response of splenocytes of BMT+OFF1 chimeric mice to donor C57Bl stimulators in MLR ([3]; any S/R ratios): completely anergic
K^b positive donor cells in bone marrow and spleen [4]: development of hematopoietic chimerism
